Assay: soluble on expression in E. coli; label from the status in PepcDB or PDB records

Question: Which “soluble on expression in E. coli” value does the source give for “MIPNFRGFNKKTKKMYSIDGFKSSERKIYRCSLADDEFRSGRLETFHFVEDNLVEKCNRPPERFYRQKQVRKSDRRLMARQ” here?
Answer: not soluble

Question: Which “soluble on expression in E. coli” value does the source give for “MDTPPTVFSIIIPVYNRPDEVRELLESLLIQTNSDFEVIIVEDGSSVCCDKEVDRVRELLRIQYVRVPNGGPAAARNIGARMAVGEYLLILDSDVVLPSGYIAAVKKRIEQMQADAFGGPDAAAEGFSPIQKAINYAMTSFFTTGGIRGGRRVRLDKFYPRSFNFGCKLSVYRQLGGFSEEMRFGEDIDFSLRLFKAGYNVCLFPEAFVFHKRRIDFKKFFRQVYNSGIARIHLQRRHPGSMKP” here?
Answer: not soluble

Question: For “MLMTIDISEESLAKESADLLKILLKDRTTKKSIVWATHSYELLGKGFAPSDRINPSKVTGNFANLIQPRSEKSKYEQKDRTKIRAEVFTPTWLVAKQNGYVESKLGSLSLEEYVDLRWLEVTCGEAPYMVTRYDTVTGEEIPLSERVGFVDRKLQRISREVSDEVTFYKLVKDAYHASYGYEYQGDSLLLARENLLATFEDYYLAKTGNQPTLEQKKEIATIISYNVFQMDGLKKSSPYSAKQKQSQQLSLFADELEVQEVEESKTHIKDWKKNRMIGFERLSSEESEMKFDVVIGNPPYQETGEARDEPIYHYFIDEAYKIADKSILITPARFLFKAGQTPKNWMEKMLEDKHLKVQFYELKSGKVFTGTDIKGGVAITYRDVDKDLGPIGVFTIFETLNGIVKKIEKHPEFETFSDLVYPQGIYRFSNKLFSDYPNAEKLQGKGTKNKIVSKSLTQLDFVFKNNEEKDHVALLGRIGSERVYRYINKKYLDLPETFENYNVFVPEANGSGALGEVLSTPLIGEPLIGHTDTFLSIGNFKTKFEADACIKFIKTKFARVLLGVLKVTQHNSRKTWYYVPLQDFTVNSDIDWTQSVTDIDRQLDQKYDLSPEEIAFIENHVREMD”, which “soluble on expression in E. coli” value is on record?
Answer: not soluble

Question: With “MGSDKIHHHHHHMKAIVFGGSGFIGSHIVNSLEADSVAYYSLEKGTNVKRNDAVWIQGDVTDYSKVEASMAGYDTVFFAVEDWAADEARNREILLNGIKNVVSAIKKASTDQKLVSFSMINQPSYPLEYFRTKRLVEDNTRVLKNGLVVRLSIVFGDGDHFTDRFVKLAEQVSHLPEEGNLAPVYVGDVVTVVNSIIKREGVYDICSNDNLPLIRIINYIRKNIGKKEIGSVKLEKGLSMLTETGLFSRYEAELMFQDYYRETSILDRYVKNPTSYLDFLRSILVEHTT” as the sequence, how does the “soluble on expression in E. coli” value read?
Answer: not soluble

Question: For “MEVEKYDLTLDFDIQKRTFNGTETITADAGDIVLDAVGLQINWMKVNGRDTAFTYDGQTVRAPGDSQPQKIEISFAGKVSDSLSGIYYAGRENGMITTHFEATDARRMFPCVDHPAYKAVFAITVVIDKDYDAISNMPPKRIEVSERKVVEFQDTPRMSTYLLYVGIGKFRYEYEKYRDIDLILASLKDIRSKYPLDMARKSVEFYENYFGIPYALPKMHLISVPEFGAGAMENWGAITFREIYMDIAENSAVTVKRNSANVIAHEIAHQWFGDLVTMKWWNDLWLNESFATFMSYKTMDTLFPEWSFWGDFFVSRTSGALRSDSLKNTHPIEVDVRDPDEISQIFDEISYGKGASILRMIEDYAGYEEFRKGISKYLNDHKFGNAEGSDLWTAIEDVSGKPVKRVMEYWIKNPGYPVIKLKRNGRKITMYQTRFLLNGEEEGRWPVPVNIKKKDGVERILLEDEASIEADGLIKINADSAGFYRVLYDDATFSDVMGHYRDLSPLDRIGLVDDLFAFLLSGHIDPETYRQRIRNFFDDEDHNVITAIVGQMEYLRMLTHAFDDDARAFCRSRMQFLTGKQDENLKIALGRVSRLYVMVDESYAEEMSKLFKDFDSAEPEMRSSIATAYALVTGDLKGLLEKFRSVDRDEDRVRIISAFGKLKSNTDLSTVYGMVEKTEIKKQDMISFFSSALETLPGREFIFANLDRIIRLVIRYFTGNRTASRTVEMMIPVIGLDHPDAEDIVRNIGSKNISMGLAKGIEMLAVNRKLVERIRQTAVK”, which “soluble on expression in E. coli” value is on record?
Answer: soluble

Question: Which “soluble on expression in E. coli” value does the source give for “MGSDKIHHHHHHMRTICVFNNKGGVGKTTLLCNLAAYFSIKRGKKVLVVDADPQCNATAYMIKEKVLDKLYASSSSDSATINSLIASLKKSKGYGIPPVLRSDGFNVDIVPGDPKFSLAEDFLAKDWLDAIAGDERGLRTTFFFRNLISWARSDGYDLVFFDMGPSLGAINRTVLLSSDHFILPMSSDIFSLRGLQNIEVALKNWTKGIERGLVSFKEDQGTSFKVESGDALSELGVSFLGYVTQQYTAKTVDGKKQPVSAYEKIIKKIDPLVSKHLILPLNKGQKLNYKLGEIPYFQSLVPMAQTATVPIFALKKADGVVGAHFDKVRQFDSVISGIVDKIEANMNSKGN” here?
Answer: not soluble

Question: With “GSHMKEDQVVAEEPGFQDEEESLFQDIDLLQKHGINVADIKKLKSVGICTIKGIQMTTRRALCNVKGLSEAKVDKIKEAANKLIEPGFLTAFEYSEKRKMVFHITTGSQEFDKLLGGGIESMAITEAFGEFRTGKTQLSHTLCVTAQLPGAGGYPGGKIIFIDTENTFRPDRLRDIADRFNVDHDAVLDNVLYARAYTSEHQMELLDYVAAKFHEEAGIFKLLIIDSIMALFRVDFSGRGELAERQQKLAQMLSRLQKISEEYNVAVFVTNQMTADPGATMTFQADPKKPIGGHILAHASTTRISLRKGRGELRIAKIYDSPEMPENEATFAITAGGIGDAKE” as the sequence, how does the “soluble on expression in E. coli” value read?
Answer: soluble

Question: For “MNPGKPMPLVVHGWTIFAHPLFLAQIEVLIQQVEAHKQKDPVGFVKKNASKRLAAITKLAFDIILQDPARPEYRQGGTLGDDYKHWFRAKFFQQYRLFFRYHTLSKVIVFAWVNDEDTRRAYESSDDAYRMFRKMLENGLPPDDWNQLLAEARAEGQRLQQFAARWW”, which “soluble on expression in E. coli” value is on record?
Answer: not soluble

Question: With “MSGKPPAIFLMGPTAAGKTDLAIELTTVLPCELISVDSALVYRGMDIGSAKPSKEVLAAHPHRLIDILDPAQSYSAAQFRADALEAMAEITARGKIPLLVGGTMLYYKALIDGLADMPAADATVRAELEAQAEALGLAELHRQLAEVDPESAARIHPNDPQRLIRALEVYRVSGESMTAHRRRQFAESRGADAGAGGHLPYTVASLAIAPTDRHILHQRIALRFSQMLEQGFVDEVRSLRARSDLHAGLPSIRAVGYRQVWDYLDGKLTENEMRERGIIATRQLAKRQFTWLRGWPEVHWLDSLACDNLSRTLKYLGAISILSLEHHHHHH” as the sequence, how does the “soluble on expression in E. coli” value read?
Answer: soluble

Question: Which “soluble on expression in E. coli” value does the source give for “MSLKWTIYQLHQMPKQSFEFDETVELNELTKLNSDIRRISPVRVKGRADIKSKQVSFDFTISGEMLLPCSRTLVDVPYPFEISTKELFIFHHTDDIEDDDVHIVEDDTIDITPIVKEEILLEIPMQIFCESEQEKGAAPQEGKDWQVISEEDKKNQVDPRLAALEKLLKQDDESEGHHHHHH” here?
Answer: soluble

Question: With “QAKQTMQTLSTLNELGSKVEEVRNFFNFELPYRVKHVDQVSLKLQLVYAVRLQLESEVSDANGPDVTQLLYSTDRFLESARAFIGSDGELVSLAEQLHTSRGAENNSQQIENMYYRLGALVLESIFSDSNTNTDTYRELDLLFIESDSLSTGERSAFQRRLAQTSSVLAANAQGSYLANQLLKPDFPNQLVSMKATLEQK” as the sequence, how does the “soluble on expression in E. coli” value read?
Answer: not soluble

Question: For “MGSDKIHHHHHHMAQIKPISGAEDRVLLAEALPLVSPFTLNVFPTNACNFKCSYCAQSLGAEALAATYGMDRGFMSLETMELIVEQSKAFAPYKLLSFMGHGEPLLNRDLPKMISLAARAGIAQRIEIITNASMLTHEYADELIDSGLTNLRVSLQGLDMESYRKICGVALDFDRFMERLVYFYTHKKKDMGLFVKIMDVSLPIGGAKEFYKLFNNICDRMYVENVQPVYHAVDVHSSNGSDLTRYDRYGNAHPPRTVCPLAFFSLAVWPNGDVQPCDAIYKPCVLGNVHNTNLREMWDSELLKQFRIRHLRGEKEIITGCSNCCAPDDVSHPLDALDDRKDEILCRLFG”, which “soluble on expression in E. coli” value is on record?
Answer: not soluble

Question: With “MMFLNKVDKRKIALFQLLENAPMLTESKETVMQELELSEFIVNKTVAELNADFIEFGLSEDFQIVSDGIFLTLNESGTETSATLIDCYIKESLRFAMFQDFFFQRFDSVNEFALEHFVSHTLAYKEFKELKKMLENYQITINKEFHLVGNETNLREVTTLVFLQLYQRDFSLYGKKVLEQIRNFELFFSEKVHLNQRAGYAQAKCFHFLAVSLVRTQQQFYVEKKVDSQVLKQLAGDNQQNVFNWLESLQIPEPQRTNEGNYLLLFLIAEEWLQVASAALCQRFAEIQQLNRDLLSYLKIQFQLSEEVLQGFEQKVTIVHFKLFHFPIEANYSYLKMDITYFAETYTEYFSASRQFIQEQKTNPAVWDARRFLFYRYLLLMVDALPLKKVLAPITLCVDFSFGEAYNRMIQKNIEKITEWNIIFKAHVDESVQLILSDIHFVDWPEITQIIWLAPPRPVDWSHFIKTLSALRPHSGEEKKKSS” as the sequence, how does the “soluble on expression in E. coli” value read?
Answer: not soluble

Question: Which “soluble on expression in E. coli” value does the source give for “MGSDKIHHHHHHMTIMDWNTIKGLVPVSGVQPDFVNCLDAFPVLKRAKETPQEPRYHGEGDVWTHTMMVIESLLQLPDYQTATREQQEILFFAALLHDVAKYRTTVIDPVTGQIGQPGHSRKGAIDARVLLWDADVPFAIREAICRLIAVHQVPFYCLEDERRRVSPIFTIRELSWQLSIPLLATLAEADIRGRICQDQTRVLDSIELFRELAREEGCYGQPRAFVDAHTRLSYFRGADVHPDYPLFQEPGSKVTVMCGLPASGKDTWVRTHRHDLPVVSFDDARTELGLKHGENEGKAVHWATDKARSLLRTHEPFVWNATHLSQQMRTRTLDLCYAYGAEVEIVYLERPRQELLRRNGKRDTTLSNKTLQGMLTKWELPSPTEAHVVRYES” here?
Answer: not soluble

Question: Which “soluble on expression in E. coli” value does the source give for “SRKRLSAPELRLSLTKGPGNDGASPTQSAPSSPDGSSDLEIDELETPSDSEQLDSGHEFEWEDELPRAEGLGTSETAERLGRGCMWDVTGEDGHHWRVFRMGPREQRVDMTVIEPYKKVLSHGGYHGDGLNAVILFASCYLPRSSIPNYTYVMEHLFRYMVGTLELLVAENYLLVHLSGGTSRAQVPPLSWIRQCYRTLDRRLRKNLRALVVVHATWYVKAFLALLRPFISSKFTRKIRFLDSLGELAQLISLDQVHIPEAVRQLDRDLHGSGGT” here?
Answer: soluble

Question: With “GEFAQECQNLEVERQRRLERIKQKQSQLQELILQQIAFKNLVQRNRHAEQQASRPPPPNSVIHLPFIIVNTSKKTVIDCSISNDKFEYLFNFDNTFEIHDDIEVLKRMGMACGLESGSCSAEDLKMARSLVPKALEPYVTEMAQGTVGGVFITTA” as the sequence, how does the “soluble on expression in E. coli” value read?
Answer: soluble

Question: For “MGNSSSLMLRDEEIEEIMSETEFNRNQIVRLYSRFLSLDKKGQGFLSRDDFLNVPELAVNPLGDRIVDAFFTLASSNGDNEEQQLNFRQFVRILAHFQPISRVKKNALNSRKDKLLFAFKMYDLNKNDYITREEFKVILNSMVGANITSDQLDKIADRTIEEADADRDGKISFDEFCRAMEKTDIEEKMSIRFLN”, which “soluble on expression in E. coli” value is on record?
Answer: soluble

Question: For “MGSDKIHHHHHHMRIQFGYVAMSMELANASPSKTMTATQFEKIEDHEAGLRKLERIAKTNLHNCLRLLKHNLAYQISFFRLSSKLVPLVNHPLTEGWKYELAIAEELQAVGEFASEHQMRIDFHPDHFVVLNSEAKEITRRSLQTLLYHYKLLKGMEIDPRHRCVLHVGGKKKGVEAGLEQFIENTASIPKSLLSMIMLENDDKSYTIDDVLYLGEKLAIPVVLDIHHHDVLHRSKSLQETWQRIVATWEDSPLPVKIHLSSPLSGEDDPRHHDYINADRFIAFLHEIGADAVDHLHVMIEAKKKDLALFQLMKDLAEYDEITVVSKSAVEFNP”, which “soluble on expression in E. coli” value is on record?
Answer: not soluble

Question: For “IGEFSYHVNGNFSIIKNKVISLGVGDVEQKSGMIGNGSDLFLGYPMNMFYGYKTDGVFLTDDEVKEWHDQSKIAPNSKAGDLRYVDISGDGKVDESDKTYLGSKIPQYTFGLGLGAEYKGFDFNILLQGVAKVKGQLTNYAGYAFFQEGNIQKWQAEETWTNNQSNRYPKYPRLEVMSNAGSNNTLGSDFWILDASYLKVRNIQLGYTLPKRITQKFGSSNLRFYISLDNPFSISGYRKGWDPEINTDGSYYPILSTYTFGLTLKF”, which “soluble on expression in E. coli” value is on record?
Answer: not soluble

Source: the DeepSol protein solubility set
